Assay results reported in article PMC4118853, “Phage Orf Family Recombinases: Conservation of Activities and Involvement of the Central Channel in DNA Binding” (PLoS ONE, 2014).

Tests used:
[1] = target: the molecule itself; experiment: static light scattering; 0.2 mg/ml protein in 100 mM Tris-HCl pH 7 at 25°C, Zetasizer µV; mass estimated for a spherical particle
[2] = target: T1, E. coli SSB (single-stranded DNA binding protein), wild type (E. coli, UniProt P0AGE0 1-178); experiment: far-Western; purified SSB wt or mutant (0.5-5 µg) separated on 15% SDS-PAGE, blotted to PVDF, probed with 20-30 µg YbcN or Orf fused to MBP or GST; detected with anti-MBP or anti-GST antibodies; conditions: both partners purified
T1 construct: also called wt SSB; source: purified as described [13]

[3] = target: T2, MBP-Orf R103E (Bacteriophage lambda, UniProt P03765 1-146, R103E); experiment: fluorescence anisotropy; dash in table; most severely deficient; EMSA: 50 mM Tris-HCl pH 8.0, 5 mM EDTA (or 1 mM MgCl2), 1 mM DTT, 5% glycerol, 100 ug/ml BSA, on ice 15 min, 4% PAGE; anisotropy: 100 mM Tris-HCl pH 7.0, 10 nM; conditions: protein: recombinant, tags: N-terminal MBP, chain copies: 2
T2 sequence: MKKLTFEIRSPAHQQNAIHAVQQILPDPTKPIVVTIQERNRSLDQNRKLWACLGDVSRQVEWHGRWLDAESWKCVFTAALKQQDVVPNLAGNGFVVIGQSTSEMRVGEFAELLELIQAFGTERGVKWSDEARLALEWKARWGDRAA

[4] = target: T3, MBP-Orf Q45A (Bacteriophage lambda, UniProt P03765 1-146, Q45A); experiment: fluorescence anisotropy; apparent, per dimer; EMSA: 50 mM Tris-HCl pH 8.0, 5 mM EDTA (or 1 mM MgCl2), 1 mM DTT, 5% glycerol, 100 ug/ml BSA, on ice 15 min, 4% PAGE; anisotropy: 100 mM Tris-HCl pH 7.0, 10 nM; conditions: protein: recombinant, tags: N-terminal MBP, chain copies: 2
T3 sequence: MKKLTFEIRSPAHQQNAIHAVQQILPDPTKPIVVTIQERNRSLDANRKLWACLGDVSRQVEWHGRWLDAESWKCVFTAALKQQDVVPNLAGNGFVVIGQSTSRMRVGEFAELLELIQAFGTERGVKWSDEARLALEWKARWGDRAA

[5] = target: T4, MBP-Orf K48A (Bacteriophage lambda, UniProt P03765 1-146, K48A); experiment: as above; conditions: protein: recombinant, tags: N-terminal MBP, chain copies: 2
T4 sequence: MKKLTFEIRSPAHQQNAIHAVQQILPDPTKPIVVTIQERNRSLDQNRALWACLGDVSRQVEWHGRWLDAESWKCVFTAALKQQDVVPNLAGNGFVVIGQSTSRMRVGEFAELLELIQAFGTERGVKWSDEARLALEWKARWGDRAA

[6] = target: T5, MBP-YbcN (Escherichia coli cryptic prophage DLP12 …, UniProt Q47269 1-151); experiment: as above; conditions: protein: recombinant, tags: N-terminal MBP, chain copies: 2
T5 sequence: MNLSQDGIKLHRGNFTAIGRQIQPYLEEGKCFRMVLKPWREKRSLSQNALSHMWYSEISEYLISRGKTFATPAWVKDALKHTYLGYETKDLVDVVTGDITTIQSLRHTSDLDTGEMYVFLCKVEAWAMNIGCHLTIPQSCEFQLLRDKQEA

[7] = target: T6, MBP-Orf W50A (Bacteriophage lambda, UniProt P03765 1-146, W50A); experiment: as above; conditions: protein: recombinant, tags: N-terminal MBP, chain copies: 2
T6 sequence: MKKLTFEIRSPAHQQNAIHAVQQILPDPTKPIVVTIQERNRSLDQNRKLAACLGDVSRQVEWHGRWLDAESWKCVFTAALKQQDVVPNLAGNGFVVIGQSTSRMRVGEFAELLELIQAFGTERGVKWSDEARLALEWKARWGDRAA

[8] = target: T7, MBP-Orf V106E (Bacteriophage lambda, UniProt P03765 1-146, V106E); experiment: as above; conditions: protein: recombinant, tags: N-terminal MBP, chain copies: 2
T7 sequence: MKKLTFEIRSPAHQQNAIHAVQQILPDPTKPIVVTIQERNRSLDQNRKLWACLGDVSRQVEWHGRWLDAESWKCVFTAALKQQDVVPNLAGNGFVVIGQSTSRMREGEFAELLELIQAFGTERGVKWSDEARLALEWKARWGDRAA

[9] = target: T8, MBP-Orf (Bacteriophage lambda, UniProt P03765 1-146); experiment: as above; conditions: protein: recombinant, tags: N-terminal MBP, chain copies: 2
T8 sequence: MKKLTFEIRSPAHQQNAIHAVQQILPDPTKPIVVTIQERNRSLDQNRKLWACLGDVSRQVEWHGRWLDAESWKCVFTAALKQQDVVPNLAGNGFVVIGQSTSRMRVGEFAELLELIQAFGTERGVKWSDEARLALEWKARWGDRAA

[10] = target: T9, MBP-Orf W137A (Bacteriophage lambda, UniProt P03765 1-146, W137A); experiment: as above; conditions: protein: recombinant, tags: N-terminal MBP, chain copies: 2
T9 sequence: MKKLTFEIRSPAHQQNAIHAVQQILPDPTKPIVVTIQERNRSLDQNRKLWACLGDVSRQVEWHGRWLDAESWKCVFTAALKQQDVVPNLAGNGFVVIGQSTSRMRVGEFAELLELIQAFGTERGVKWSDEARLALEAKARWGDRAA

[11] = target: T8, MBP-Orf; experiment: fluorescence anisotropy; some preference over duplex control; data varied; EMSA: 50 mM Tris-HCl pH 8.0, 5 mM EDTA (or 1 mM MgCl2), 1 mM DTT, 5% glycerol, 100 ug/ml BSA, on ice 15 min, 4% PAGE; anisotropy: 100 mM Tris-HCl pH 7.0, 10 nM; conditions: protein: recombinant; tags: N-terminal MBP; chain copies: 2; label: 3'-fluorescein on strand 1; blunt, central single T:G mismatch
[12] = target: T5, MBP-YbcN; experiment: EMSA; 5 mM EDTA; no preference over DS60; EMSA: 50 mM Tris-HCl pH 8.0, 5 mM EDTA (or 1 mM MgCl2), 1 mM DTT, 5% glycerol, 100 ug/ml BSA, on ice 15 min, 4% PAGE; anisotropy: 100 mM Tris-HCl pH 7.0, 10 nM; conditions: protein: recombinant; tags: N-terminal MBP; chain copies: 2; label: 5'-32P on strand 1; blunt, central single G:G mismatch
[13] = target: T5, MBP-YbcN; experiment: EMSA; 5 mM EDTA; three complexes; EMSA: 50 mM Tris-HCl pH 8.0, 5 mM EDTA (or 1 mM MgCl2), 1 mM DTT, 5% glycerol, 100 ug/ml BSA, on ice 15 min, 4% PAGE; anisotropy: 100 mM Tris-HCl pH 7.0, 10 nM; conditions: protein: recombinant; tags: N-terminal MBP; chain copies: 2; label: 5'-32P on strand 1; blunt
[14] = target: the molecule itself; experiment: SEC; 1 mg/ml protein on a 24 ml Superose 6HR 10/30 column in 20 mM Tris-HCl pH8, 1 mM EDTA, 0.5 mM DTT, 250 mM KCl
[15] = target: the molecule itself; experiment: SDS-PAGE of unboiled samples; purified protein on 12.5% SDS-PAGE without boiling and without a reducing agent, Coomassie blue
[16] = target: T1, E. coli SSB (single-stranded DNA …); experiment: ELISA; SSB wt or mutant (0.5 µg) bound to the microtitre plate in PBS, GST fusion added for 1 hr at 37°C, detected with HRP-anti-GST antibody, A620nm; conditions: both partners purified
[17] = label: 3'-fluorescein, single strand
[18] = label: 3'-fluorescein on strand 1, blunt, central 20 nt bubble

T1 sequence (P0AGE0 whole entry, the tested form may be a part): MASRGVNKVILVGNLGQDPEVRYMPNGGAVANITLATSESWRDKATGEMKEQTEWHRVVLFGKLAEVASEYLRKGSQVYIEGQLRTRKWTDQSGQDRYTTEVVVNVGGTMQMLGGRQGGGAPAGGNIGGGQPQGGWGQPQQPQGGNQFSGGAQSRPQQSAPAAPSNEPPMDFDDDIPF

B1: MBP-Orf (bacteriophage λ Orf fused to maltose binding protein), wild type (natural protein)
chain: MKKLTFEIRSPAHQQNAIHAVQQILPDPTKPIVVTIQERNRSLDQNRKLWACLGDVSRQVEWHGRWLDAESWKCVFTAALKQQDVVPNLAGNGFVVIGQSTSRMRVGEFAELLELIQAFGTERGVKWSDEARLALEWKARWGDRAA
notes: Orf (NinB) of bacteriophage λ, a 17 kDa protein; predicted MBP-Orf monomer 59.6 kDa; also called Orf wt; λ MBP-Orf; source: purified as described [13]
binding result [1]: binds
binding result [2]: binds

B2: SS60-fluorescein (ssDNA)
DNA: TTTGGTCTAACTTTACCGCTACTAAATGCCGCGGATTGGTTTCGCTGAATCAGGTTATTA
binding result [3, 17]: no binding
Kd [4, 17]: 0.272 ± 0.0204 µM
Kd [5, 17]: 0.622 ± 0.0007 µM
Kd [6, 17]: 4.6 ± 0.275 µM
Kd [7, 17]: 3.54 ± 0.288 µM
Kd [8, 17]: 0.522 ± 0.0124 µM
Kd [9, 17]: 0.223 ± 0.0726 µM
Kd [10, 17]: 0.628 ± 0.0999 µM

B3: MMT:G-fluorescein (dsDNA)
DNA 1: TTTGGTCTAACTTTACCGCTACTAAATGCCGCGGATTGGTTTCGCTGAATCAGGTTATTA
DNA 2: TAATAACCTGATTCAGCGAAACCAATCTGCGGCATTTAGTAGCGGTAAAGTTAGACCAAA
binding result [11]: binds

B4: MMG:G (dsDNA)
DNA 1: TTTGGTCTAACTTTACCGCTACTAAATGCCGCGGATTGGTTTCGCTGAATCAGGTTATTA
DNA 2: TAATAACCTGATTCAGCGAAACCAATCGGCGGCATTTAGTAGCGGTAAAGTTAGACCAAA
binding result [12]: binds

B5: DS60 (dsDNA)
DNA 1: TTTGGTCTAACTTTACCGCTACTAAATGCCGCGGATTGGTTTCGCTGAATCAGGTTATTA
DNA 2: TAATAACCTGATTCAGCGAAACCAATCCGCGGCATTTAGTAGCGGTAAAGTTAGACCAAA
binding result [13]: binds

B6: BB20-fluorescein (structured_DNA)
DNA 1: TTTGGTCTAACTTTACCGCTACTAAATGCCGCGGATTGGTTTCGCTGAATCAGGTTATTA
DNA 2: TAATAACCTGATTCAGCGAATGACCGATAACGTCCACTTGAGCGGTAAAGTTAGACCAAA
binding result [3, 18]: no binding
Kd [4, 18]: 0.264 ± 0.0152 µM
Kd [5, 18]: 0.551 ± 0.0064 µM
Kd [6, 18]: 1.619 ± 0.0032 µM
Kd [7, 18]: 1.61 ± 0.418 µM
Kd [8, 18]: 0.54 ± 0.0732 µM
Kd [9, 18]: 0.173 ± 0.0209 µM
Kd [10, 18]: 0.285 ± 0.0019 µM

B7: MBP-YbcN (E. coli maltose binding protein fused to the N-terminus of DLP12 YbcN) (natural protein, E. coli (cryptic prophage DLP12), UniProt Q47269 1-151, looked up)
chain: MNLSQDGIKLHRGNFTAIGRQIQPYLEEGKCFRMVLKPWREKRSLSQNALSHMWYSEISEYLISRGKTFATPAWVKDALKHTYLGYETKDLVDVVTGDITTIQSLRHTSDLDTGEMYVFLCKVEAWAMNIGCHLTIPQSCEFQLLRDKQEA
notes: YbcN (orf151), Orf-family protein of E. coli cryptic prophage DLP12; the gene was amplified from AB1157 genomic DNA, forward primer at the ATG; predicted monomer of the MBP fusion 60.4 kDa; Construct in pMALc2; also called DLP12 MBP-YbcN; orf151; source: E. coli DH5α or BL21 (DE3) Rosetta carrying pLB101, purified (amylose; additional stocks amylose and heparin agarose)
stoichiometry N [14]: 2
binding result [2]: binds

B8: GST-YbcN (N-terminal glutathione S-transferase fusion of DLP12 YbcN) (natural protein, E. coli (cryptic prophage DLP12), UniProt Q47269 1-151, looked up)
chain: MNLSQDGIKLHRGNFTAIGRQIQPYLEEGKCFRMVLKPWREKRSLSQNALSHMWYSEISEYLISRGKTFATPAWVKDALKHTYLGYETKDLVDVVTGDITTIQSLRHTSDLDTGEMYVFLCKVEAWAMNIGCHLTIPQSCEFQLLRDKQEA
notes: YbcN (orf151), Orf-family protein of E. coli cryptic prophage DLP12; insert of pLB101 moved into pGEX-6P-1; predicted monomer of the GST fusion 44.6 kDa; higher oligomers are put down to dimer-dimer combinations; also called DLP12 GST-YbcN; source: E. coli BL21 Codon Plus carrying pLB108, purified (glutathione sepharose, heparin agarose, Q sepharose); not shown: GST, N-terminal, kept
stoichiometry N [15]: 4
binding result [16]: binds
